These results are taken from patent US8349318B2, “Use of specifically engineered enzymes to enhance the efficacy of prodrugs” (The Board of Trustees of the University of Illinois, priority 2008, dated 2013).

A value given as a limit tells only on which side of the number the result lay.

A short description of data set [1]: Kinetic characterization of dCK variants, substrate AraC. The data set is classed as biochemical.
Data set [2] is described as follows: Kinetic characterization of dCK variants, substrate D-dT. The data set is classed as biochemical.
Data set [3] is described as follows: Kinetic characterization of dCK variants, substrate D-dC. The data set is classed as biochemical.
Data set [4] is described as follows: Kinetic characterization of dCK variants, substrate D-dA. The data set is classed as biochemical.
Data set [5] can be described thus: Kinetic characterization of dCK variants, substrate L-dT. The data set is classed as biochemical.
Data set [6] is described as follows: Kinetic characterization of dCK variants, substrate gemcitabine. The class given is biochemical.
Data set [7] in a line: Kinetic characterization of dCK variants, substrate D-dG. The data set is classed as biochemical.
For data set [8] the following is noted: Iyidogan, et al., 2008; read-out: Km for D-dT; cited from earlier work.
The test system of another data set is SKBR-3. Briefly: MTS cytotoxicity assay in breast cancer-derived cell line. The data set is classed as cell-based, human. The conditions noted are these: SKBR-3, 96 hours. On the procedure: The cells were then exposed to varying amount of BVdU for 96 hours. […] Cell viability was measured using the MTS cytotoxicity assay according to the manufacturer's instructions (Promega). […] MTS was reduced by cellular dehydrogenase into formazan, which is soluble in tissue culture medium. […] Since the production of formazan is proportional to the number of living cells, the intensity of the produced color is a good indication of the viability of the cells.

The subject of a further data set is parent 293 cells. Briefly: Proliferation of parental 293 cells treated with nucleoside analogs. The class given is cell-based, human. The conditions noted are these: highest tested concentration of 50 μM. The protocol: Next, whether the dCK-S74E/R104M/D133A variant could inhibit cell growth in the presence of NAs including BVdU was tested. Human 293 cells were stably transfected with a recombinant expression construct encoding the dCK-S74E/R104M/D133A protein. The proliferative capacity of the stably transfected cell line was compared to the parental 293 cells after treating the cells with several nucleoside analogs such as AraC, gemcitabine, and BVdU. Since some of the nucleosides were first dissolved in the solvent DMSO, equal amounts of DMSO were used as control.

The next data set concerns the target T1, R104Q-D133A dCK (Homo sapiens, UniProt P27707, D133A/R104Q).
T1 construct: made in house
The data set can be described thus: Kinetic assay of nucleoside phosphorylation by R104Q-D133A dCK. The class given is biochemical. The conditions noted are these: nucleoside 200 uM.

In another data set the target is dCK R104L/D133A (Homo sapiens, UniProt P27707, D133A/R104L). The data set can be described thus: Kinetic characterization of nucleoside phosphorylation by dCK R104L/D133A. The conditions noted are these: Table 9.
The conditions of data set [9]: McSorley et al., 2008; cited from earlier work.
Setting [10] is: nucleoside concentration of 200 μM, ATP 1 mM.
[11] abbreviates: Table 8, nucleoside 200 mM, ATP 1 μM [sic].

Sequence of dCK R104L/D133A (P27707 whole entry R104L/D133A): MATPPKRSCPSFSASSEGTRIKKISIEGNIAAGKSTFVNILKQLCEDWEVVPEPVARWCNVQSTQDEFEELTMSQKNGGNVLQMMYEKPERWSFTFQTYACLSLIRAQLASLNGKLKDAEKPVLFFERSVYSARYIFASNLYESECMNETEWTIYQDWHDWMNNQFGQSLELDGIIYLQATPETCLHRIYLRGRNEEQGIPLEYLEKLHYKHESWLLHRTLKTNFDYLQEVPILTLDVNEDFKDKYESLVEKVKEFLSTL
T1 sequence (P27707 whole entry R104Q/D133A): as the sequence (P27707 whole entry R104L/D133A) above, with L104Q counted along it

Regarding “WT: wild type human deoxycytidine kinase, SEQ ID NO:1 [reference compound]”, in [1] (setting [10]), the “kobs AraC” value is listed as 0.30 ± 0.04^b sec^−1. The “Rel kobs (AraC)” value in data set [1] (relative to WT) was determined as 1.00. Besides, the “kobs D-dT” value in data set [2] (setting [10]) is on record as 0.008 ± 0.001^b sec^−1. Moreover, the “Rel kobs (D-dT)” value in data set [2] (relative to WT) worked out at 1. Moreover, in data set [3] (setting [11]), the “rate of phosphorylation, D-dC” value came out at 0.03 s⁻¹. In addition, the “kobs D-dC” value in data set [3] (setting [10]) is listed as 0.03 ± 0.01^b sec^−1. In data set [3] (relative to WT), the “Rel kobs (D-dC)” value is recorded as 1. The “kobs D-dA” value in data set [4] (setting [10]) came out at 1.19 ± 0.01 s⁻¹. The “Rel kobs (D-dA)” value in data set [4] (relative to WT) came to 1. The “kobs L-dT” value in data set [5] (setting [10]) amounted to 0.017 ± 0.023 s⁻¹. Further, the “Rel kobs (L-dT)” value in [5] (relative to WT) amounted to 1. For the same compound, the “rate of phosphorylation, Gem” value in data set [6] (setting [11]) turned out to be 0.39 s⁻¹. Further, the “kobs Gem” value in [6] (setting [10]) amounted to 0.39 ± 0.01 s⁻¹. For the same compound, in data set [6] (relative to WT), the “Rel kobs (Gem)” value worked out at 1.00. In addition, the “rate of phosphorylation, D-dG” value in data set [7] (setting [11]) was found to be 0.94 s⁻¹. Further, in [7] (setting [10]), the “kobs D-dG” value turned out to be 0.94 ± 0.18 s⁻¹. The “Rel kobs (D-dG)” value in data set [7] (relative to WT) is given as 1. The Km in data set [8] is more than 3000 µM.
`O=c1[nH]c(=O)n([C@H]2C[C@H](O)[C@@H](CO)O2)cc1/C=C/Br` [BVdU, (E)-5-(2-bromovinyl)-2′-deoxyuridine]: the “effect on cell viability / proliferation” value in the data set with SKBR-3 was “no detrimental effect”. Further, the inhibition of growth entry in the data set on parent 293 cells is listed as “did not inhibit the growth”.
As to `Cc1cn([C@H]2C[C@H](O)[C@@H](CO)O2)c(=O)[nH]c1=O` [D-dT, D-thymidine], at R104Q-D133A dCK, the “kcat R104Q-D133A dCK (with 1 mM ATP as donor)” value turned out to be 0.15 s⁻¹. In addition, the “kcat, R104L/D133A” value on dCK R104L/D133A was determined as 3.20 ± 0.07 s⁻¹. In addition, the Km at dCK R104L/D133A (read-out: Km, R104L/D133A) came to 24.3 ± 3.6 µM.
Consider “dCK S74E: dCK S74E mutant mimicking the Ser74 phosphorylated state [reference compound]”, for which, in data set [9], the “increase of the rate of phosphorylation of dC” value is listed as 11 fold.
